First the molecules themselves.
B1: CitACO3 promoter probe WT (dsDNA)
DNA 1: TCCCATAAAAAAAGATCATAATAATAAAAG
DNA 2: CTTTTATTATTATGATCTTTTTTTATGGGA
B2: CitGS1 promoter probe WT (dsDNA)
DNA 1: GCACACCATCTCGATCAGGTGGTAATTTTG
DNA 2: CAAAATTACCACCTGATCGAGATGGTGTGC
B3: CitIDH1 promoter probe WT (dsDNA)
DNA 1: CATTAAATTCCACATCATCTAATATG
DNA 2: CATATTAGATGATGTGGAATTTAATG
B4: CitACO3 promoter probe mutant (dsDNA)
DNA 1: TCCCATAAAAAACCCCCCTAATAATAAAAG
DNA 2: CTTTTATTATTAGGGGGGTTTTTTATGGGA
B5: CitGS1 promoter probe mutant (dsDNA)
DNA 1: GCACACCATCTCAAAAAGGTGGTAATTTTG
DNA 2: CAAAATTACCACCTTTTTGAGATGGTGTGC
B6: CitIDH1 promoter probe mutant (dsDNA)
DNA 1: CATTAAATTCCATTTTTTCTAATATG
DNA 2: CATATTAGAAAAAATGGAATTTAATG

For the first data set, the target named is T1, CitGATA7 (Citrus, UniProt A0ACB8JKI3 1-185).
T1 sequence: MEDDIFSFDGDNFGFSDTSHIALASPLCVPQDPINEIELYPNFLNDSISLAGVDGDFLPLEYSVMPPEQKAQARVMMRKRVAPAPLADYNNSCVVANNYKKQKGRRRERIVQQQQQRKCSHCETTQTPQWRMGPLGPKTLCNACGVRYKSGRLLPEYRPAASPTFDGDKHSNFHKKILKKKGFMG
Description: EMSA; attenuated dose-dependently by unlabeled WT probe; LightShift Chemiluminescent EMSA kit (Thermo), manufacturer's instructions; buffer, salt, pH and temperature not stated. As to conditions: protein: recombinant; tags: His (pET-32a); label: 3'-biotin (both strands); blunt.
B1: the binding result is “binds”.
Same read-out and setting: the value for B2 was “binds”.
Regarding B3, the binding result is listed as “binds”.

The target of another data set is T1, CitGATA7. Description: EMSA; LightShift Chemiluminescent EMSA kit (Thermo), manufacturer's instructions; buffer, salt, pH and temperature not stated. As to conditions: protein: recombinant; tags: His (pET-32a); label: 3'-biotin (both strands); blunt.
For B4, the binding result was “no binding”.
On the same count and under the same terms, the value for B5 was “no binding”; that for B6 was “no binding”.
